Measurements taken from the nanobody polyreactivity screen of Harvey et al. (2022).

Assay: yeast display, Sf9 membrane polyspecificity reagent, FACS + sequencing; frameworks hold sequencing errors
Procedure, shortened: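 Using colony PCR, genes from sorted yeast display clones were amplified, then sequenced on MiSeq at 2 × 250 and filtered by CDR length. The clones had been stained with 10% biotinylated, detergent-solubilized Sf9 membrane reagent for 1 hour at 4 °C and sorted by FACS into low and high (top ~1%) gates on anti-HA and streptavidin fluorescence. Polyreactivity labels come from the gate of origin.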

Sequence | polyreactivity (PSR sort gate)
QVQLVESGGGLVQAGGSLRLSCAASGSIIYPYAMGWYRQAPGKERELVASINWRTGSTYYADSVKGRFTISRDNAKNTVYLQMNSLKPEDTAVYYCAARLDYYTGFDYWGQGTQVTVSS | low polyreactivity
QDQLVESGGVLVQAGGSLRLSCADSGFSFANYVMGWYRQAPGKERELFAAITTPGGSTSYADSVKGRFTISRDNAKTNVYLQMPSLKPEDTAVYFCKKTTYYPSDYDYWGQGTQVTVSS | low polyreactivity
HVRLQESGGGLVQAGGSLRQSCAASGAISPYYDMGWYRLAPGKEREFVASIAHGGTTYYADSVKGRFTTSRDNAKNTVYLQMNSLKPEDTAVYYCAVAYDVWHSHIYRGQGTQVTVSS | high polyreactivity
QVQLVESGGGLVQAGGSLRLSCAASGSILSYNTMGWYRQAPGKEREFVAGITYSGSRTYYADSVKGRFTISRDNAKNPVYLQMNSLKPEDTAVYYCAAQYWQGDYDYWGQGTQVTVSS | high polyreactivity
QVQLVESGGGLVQAGGSLRLSCAASGFTLRVNAMGWYRQAPGKERELVAAISDSGTNTYYADSVKGRFTISRDNAKNTVYLQMNSLKPEDTAVYYCATAVYLVIFEYDYWGQGTQVTVSS | low polyreactivity
QVQLVESGGGLVQAGGSLRLSCAASGITFYGYTMGWYRQAPGKERELVAAITSGGNTYYADSVKGRFTISRDNAKNPVYLQMNCLKPEDTAVYYCAARRYCYTSITWCDYWRQGTQVTVSS | high polyreactivity
QGQLVESGGGLVQGGGSLRLSCAACGSTLPSSARGWYIQAPGKDRELVAALRSGGTTNYADSVKGRFTISRDNAKNTVYVQMNSLKPEDTAVYYCATSRYLYWRSRYDYWGQGTQVTVSS | high polyreactivity
QVQLVESGGGLVQAGGSLRLSCAASGSIFTYNAMGWYRQAPGKERELVASISSGGITNYADSVKGRFTISRDNAKNTVYLQMNSLKPEDTAVYYCATEYLYVDFFIRYDYWGQGTQVTVSS | low polyreactivity
QVQLVESGGGLVQAGGSLRLSSAASGRIFPFNAMGWYRQAPGKERELVAAITSSGGRTYYADSVKGRFTISRDNAKNTVYLQMNSLTPEDTAVYYCAGTLVRRARSGPMGYWGQGTQVTVSS | high polyreactivity
QVQLVESGGGLVQAGGSLRLSCAASGRTFAGNAMGWYRPAPGTERELVADITRGGGSTYYADSVKGRFTISRDNAKNTVYLQMNSLKPEDTAVYYCAAATAFYYFISEYDYWGQGTQVTVSS | high polyreactivity
QVQLVESGVGLVQAGGILRLSCAAYGTFGSYAMGWYRQAPGKERELVASISGTGGDTYYADSVKGRFTISRDNAKNTVYLQMNSLKPEDTAVYDCAARWSRYWYLGSWLYDYWGQGTQVSVSS | high polyreactivity
QVQLVESGGGLVQAGGSLRLSCAASGITLFGYAMGWYRQAPGKERELVAVITSDGGRTYYADSVKGRFTISRDNAKNTVYLQMNSLKPEDTAVYYCAARAYDRTSGYYYWGQGTQVTVSS | low polyreactivity
QVQLVESGGGLVQAGGSLRLSCAPSGNTFEHYAMGWYRQAPGKERELVAAISYSGGSTYYADSVKGRFTISRDNAKNTVYLQMNSLKPEDTAVYYCNARGRASATGRRGRPDPFGYWGQGTQVTLSS | high polyreactivity
QVQLVESGGGLVQAGGSLRLSCAASGITFVHYAMGWYIQAPGKERELVAAISEDGGSTYYADSVKGRFTISRDNAKNTVYLQMNSLKPEDTAVYYCNTYSGLWPYWRLYDYWGQGTQVTVSS | high polyreactivity
QVQLVESGGGLVQAGGSLRLSCAASGFTFRSYTMGWYRQAPGKERELVAAITSGGSTYYADSVKGRFTISRDNAKNTVYLQMNSLKPEDTAVYYCAVTYRWHTFIYDYWGQGTQVTVSS | low polyreactivity
QVQLVESGGGLVQAGGSLRLSCAASGFIFTPYTKGWYRQATGKERELVAAITDGSSTYYADSVKGRFTISRDNAKNTVYLQMNSLKPEDTAVYYCNADTLTTTRRFNPYDYWGQGTQVTVSS | low polyreactivity

Sequence | polyreactivity (PSR sort gate)
QDQLVESGGGLVQAGGSLRLSCAASGRIFTRYAMGWYRQAPGKEREFVAAISVRGGTTYYADSVKGRFTISRDNAKNTVYLQMNSLKPEDSAVYYCAARKISKYDYWGQGTQVTVSS | high polyreactivity
QVQLIESGGGLVQAGGSLRLSCAASGRTFYVNAMGWYRQAPGKERELVAAIRSGGSTSYADSVKGRFTISRDNAKNTVYLQMNSLKPEDTAVYYCAAKSGLDLYYGLGGYWGQGTQVTVSS | high polyreactivity
QVQLVESGGGLVQAGGSLRLSCAASGRTSYRDAMGWYRQAPGKESEFVAAISKSGTSTYYADSVKGRFTISRDNAKNTVYVQMYRLKPEDTAVYYCAAITGVGLRVNSGIGFYYWGQGTQVTVSS | high polyreactivity
QVQLVESGGGLVQAGGSLRLSCADSGYTFGRNAMGWYRQAPGKERELVATISQRGGSTYYADSVKGRFTISLDNAKNTVYLQLNSLKPEDTAVYYCAAGPIYRYRRYYYWGQGTQVTVSS | high polyreactivity
QVQLVESGGGLVQAGGSLRLSCAASGRTFKYYAMGWYRQAPGKERELVATISYNGASTYYADSVKGRFTISRDNAKNTVYLQMNSLKPEDTAVYYCAAGYLWRGRLGYWGQGTQVTVSS | high polyreactivity
QVQLVESGGGLVQAGGSLRLSCAASGITFYWYAMGWYRQAPGKERELVAAISSGGSTYYADSVKGRFTISRDNAKNTVYLQMNSLKPEDTAVYYCAAAFRYTPLSDHGYWGQGTQVTVSS | high polyreactivity
QVQLVESRGGLVQAGGSLRLSCAASGRNFKANTMGWYRQAPGKERVVVAAITASGGTTYYADSVKGRFTISRDNAKNTVYLQMTSLKPEDTAVYYCAAAVWYRGWYRYEYWGQGSQVTVSS | low polyreactivity
QVQLVESGGGLVQAGGSLRLSCAASGIIFFFYAMGWYRQEPGKERELVAAISDEGVSTDYADSVKGRFTISRDNAKNTVYLQMNSLKPEDTAVYYCAAKTERVYPWFSFGYWGQGTQVTVSS | low polyreactivity
QVQLVESGGGLVQAGGSLRLSCASSGRIFGTYAMGWYRQAPGKERELVARIRTSGSTNYADSVKGRFTISRDNAKNTVYLQMNSLKPEDTAVYYCAADRRYYSAYEYWGQGTQVTVSS | high polyreactivity
QVQLVESGGGLVQAGGSLRLSCAASGGIFSYYAMGWYRQAPGKEREFVAAIDWGGGSTYYADSVKGRFTISRDNAKKTVYLQMNSLKPEDTAVYYCAAEIYPIGWDDYDYWGQGTQVTVSS | low polyreactivity
QVQLVETGGGLVQAGGSLRLSCAASGSIFERYAMGWYRQAPGKEREFVATITSGGGRTYYADSVKGRFTISRDNAKNTVYLQMNSLKPEDTAVYYCAAASYRRQPFNYWGQGTQVTVSS | high polyreactivity
QVQLVESGGGLVQAGGSLRLSCAASGRTFLIYAMGWYRQAPGKERELVAAITNAVDSTYYADSVKGRFTISRDNAKNTVYLQMNSLKPEDTAVYYCNADTVVEWYSPSREYDYWGQGTQVTVSS | low polyreactivity
QVQLVESGGALVQAGGSLRLSCAASGRIIYKNAMRWYRQAPGKETELVATITYSDGTTYYADSVKGRFTISRDNAKNTVYLQMNSLKPEDTAVYYCAAQTDSVESDYWGQGTQVTVSS | low polyreactivity
QVHLVESGGGLVQAGGSLRLSCAASGRIFTYKAMGWYRQAPGKERELVAAITYRRSSTYYADSVKGRFTISRDNAKNTVYLQMNSLKTEDTAVYYCAAVFSGFYYAYDYWGQGTQVTVSS | high polyreactivity
QVQLVESGGGLVQAGGSLRLSCAASGSIFESYAMGWYRQAPGKERELVAAIDYSGGSTYYADSVKGRFTISRDNAKNSVYLQMNSLKREDTAVYYCAAGYRTYYGYRYGYWGQGTQVTVSS | high polyreactivity
QVQLVESGGGLVQAGGSLRLSCAASGSTFRYYAMGWYRQAPGKERELVAAISGSGGRTYYADSVKGRFTISRDNAKNTVYLQMNSLKPEDTAVYYCNTRGRRTDYDYWGQGTQVTVSS | high polyreactivity
